# Biological target: AtoB (Aspergillus ochraceus LZDX-32-15)
# Assay: crystal structure
substance,measurement,value
AtoB (enzyme),stoichiometry N,2

# Source: article PMC11485096
